B1: Synaptotagmin-2 (Mus musculus), P46097 (parent)
chain: MRNIFKRNQEPNVAPATTTATMPLAPVAPADNSTESTGPGESQEDMFAKLKEKFFNEINKIPLPPWALIAMAVVAGLLLLTCCFCICKKCCCKKKKNKKEKGKGMKNAMNMKDMKGGQDDDDAETGLTEGEGEGEEEKEPENLGKLQFSLDYDFQANQLTVGVLQAAELPALDMGGTSDPYVKVFLLPDKKKKYETKVHRKTLNPAFNETFTFKVPYQELAGKTLVMAIYDFDRFSKHDIIGEVKVPMNTVDLGQPIEEWRDLQGGEKEEPEKLGDICTSLRYVPTAGKLTVCILEAKNLKKMDVGGLSDPYVKIHLMQNGKRLKKKKTTVKKKTLNPYFNESFSFEIPFEQIQKVQVVVTVLDYDKLGKNEAIGKIFVGSNATGTELRHWSDMLANPRRPIAQWHSLKPEEEVDALLGKNK

Variants of: B1
Settings: with bxb_clobo botB

Variant | effect of a mutation on the interaction
MRNIFKRNQEPNVAPATTTATMPLAPVAPADNSTESTGPGESQEDMAAKLKEKFFNEINKIPLPPWALIAMAVVAGLLLLTCCFCICKKCCCKKKKNKKEKGKGMKNAMNMKDMKGGQDDDDAETGLTEGEGEGEEEKEPENLGKLQFSLDYDFQANQLTVGVLQAAELPALDMGGTSDPYVKVFLLPDKKKKYETKVHRKTLNPAFNETFTFKVPYQELAGKTLVMAIYDFDRFSKHDIIGEVKVPMNTVDLGQPIEEWRDLQGGEKEEPEKLGDICTSLRYVPTAGKLTVCILEAKNLKKMDVGGLSDPYVKIHLMQNGKRLKKKKTTVKKKTLNPYFNESFSFEIPFEQIQKVQVVVTVLDYDKLGKNEAIGKIFVGSNATGTELRHWSDMLANPRRPIAQWHSLKPEEEVDALLGKNK [F47A] | disrupting interaction strength
MRNIFKRNQEPNVAPATTTATMPLAPVAPADNSTESTGPGESQEDMFAKLKEKFANEINKIPLPPWALIAMAVVAGLLLLTCCFCICKKCCCKKKKNKKEKGKGMKNAMNMKDMKGGQDDDDAETGLTEGEGEGEEEKEPENLGKLQFSLDYDFQANQLTVGVLQAAELPALDMGGTSDPYVKVFLLPDKKKKYETKVHRKTLNPAFNETFTFKVPYQELAGKTLVMAIYDFDRFSKHDIIGEVKVPMNTVDLGQPIEEWRDLQGGEKEEPEKLGDICTSLRYVPTAGKLTVCILEAKNLKKMDVGGLSDPYVKIHLMQNGKRLKKKKTTVKKKTLNPYFNESFSFEIPFEQIQKVQVVVTVLDYDKLGKNEAIGKIFVGSNATGTELRHWSDMLANPRRPIAQWHSLKPEEEVDALLGKNK [F55A] | disrupting interaction strength
MRNIFKRNQEPNVAPATTTATMPLAPVAPADNSTESTGPGESQEDMFAKLKEKAFNEINKIPLPPWALIAMAVVAGLLLLTCCFCICKKCCCKKKKNKKEKGKGMKNAMNMKDMKGGQDDDDAETGLTEGEGEGEEEKEPENLGKLQFSLDYDFQANQLTVGVLQAAELPALDMGGTSDPYVKVFLLPDKKKKYETKVHRKTLNPAFNETFTFKVPYQELAGKTLVMAIYDFDRFSKHDIIGEVKVPMNTVDLGQPIEEWRDLQGGEKEEPEKLGDICTSLRYVPTAGKLTVCILEAKNLKKMDVGGLSDPYVKIHLMQNGKRLKKKKTTVKKKTLNPYFNESFSFEIPFEQIQKVQVVVTVLDYDKLGKNEAIGKIFVGSNATGTELRHWSDMLANPRRPIAQWHSLKPEEEVDALLGKNK [F54A] | disrupting interaction strength

— IntAct's records for PubMed 17167418
